Test results from patent US20250051460A1.

Biological target: human VEGF-A (human) (UniProt P15692)
Test: cell-based or functional assay

Sequence of human VEGF-A (human) (P15692 other isoform, or with tags, fused parts or gaps limits assumed): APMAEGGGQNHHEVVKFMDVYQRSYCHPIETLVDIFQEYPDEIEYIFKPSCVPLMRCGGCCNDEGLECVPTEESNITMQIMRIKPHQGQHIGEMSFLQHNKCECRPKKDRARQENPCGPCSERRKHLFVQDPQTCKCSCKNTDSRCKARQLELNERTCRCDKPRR
Sequence of EYLEA (aflibercept) (Fc fusion) (chain): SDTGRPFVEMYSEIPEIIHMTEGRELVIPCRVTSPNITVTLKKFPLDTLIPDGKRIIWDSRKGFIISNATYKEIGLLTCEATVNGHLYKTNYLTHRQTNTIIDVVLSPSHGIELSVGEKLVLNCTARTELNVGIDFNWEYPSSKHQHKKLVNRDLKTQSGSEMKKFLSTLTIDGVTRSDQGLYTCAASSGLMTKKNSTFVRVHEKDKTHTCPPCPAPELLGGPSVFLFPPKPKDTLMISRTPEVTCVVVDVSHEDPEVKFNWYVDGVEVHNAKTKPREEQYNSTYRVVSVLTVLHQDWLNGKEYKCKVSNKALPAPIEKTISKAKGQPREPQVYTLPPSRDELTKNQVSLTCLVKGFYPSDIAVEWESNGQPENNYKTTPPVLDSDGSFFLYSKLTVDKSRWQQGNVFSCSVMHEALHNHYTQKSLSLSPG

ERK1/2 phosphorylation: Bottom plateau (AlphaLISA counts) (AlphaLISA counts): 21700
ERK1/2 phosphorylation: Top plateau (AlphaLISA counts) (AlphaLISA counts): 109000
HRMEC proliferation, delta area under the curve vs. basal: Top plateau (arbitrary units) (arbitrary units): 129
HRMEC proliferation: Bottom plateau (arbitrary units) (arbitrary units): 13.3
HRMEC proliferation: IC50 (pM): 171 pM
HRMEC proliferation: LogIC50: -9.77
IC50 (p38 MAPK phosphorylation): 0.74 nM
Src phosphorylation (Y419): Bottom plateau (AlphaLISA counts) (AlphaLISA counts): 2210
Src phosphorylation (Y419): IC50: 0.933 nM
Src phosphorylation (Y419): LogIC50: -9.37
Src phosphorylation (Y419): Top plateau (AlphaLISA counts) (AlphaLISA counts): 3420
inhibition of VEGF-induced HRMEC proliferation: 16 nM
p38-MAPK phosphorylation (T180/Y182): Bottom plateau (AlphaLISA counts) (AlphaLISA counts): 8890
p38-MAPK phosphorylation (T180/Y182): IC50: 0.748 nM
p38-MAPK phosphorylation (T180/Y182): LogIC50: -9.13
p38-MAPK phosphorylation (T180/Y182): Top plateau (AlphaLISA counts) (AlphaLISA counts): 23100
Substance: EYLEA (aflibercept) (Fc fusion)
